Data published in patent publication US20100015126A1, “Methods of Binding of Cross-Beta Structures By Chaperones” (priority 2006, published 2010).

How the values were obtained:
[1] = target: Hypothetical protein/Heat shock 70 kDa protein 5 (glucose-regulated protein, 78 kDa = GRP78 = BiP = HSPA5), as identified in eluates (human) (UniProt P11021); assay: BiP-Sepharose pull-down, RA synovial fluid sample 5B, 1 M NaCl eluate, MS; BiP may stem from the column
[2] = target: Hypothetical protein/Heat shock 70 kDa protein 5 (glucose-regulated protein, 78 kDa = GRP78 = BiP = HSPA5), as identified in eluates (human) (UniProt P11021); assay: BiP-Sepharose pull-down, RA synovial fluid sample 4B, 1 M NaCl eluate, MS; BiP may stem from the column
[3] = target: Hypothetical protein/Heat shock 70 kDa protein 5 (glucose-regulated protein, 78 kDa = GRP78 = BiP = HSPA5), as identified in eluates (human) (UniProt P11021); assay: BiP-Sepharose pull-down, RA patient IV synovial fluid (B6), MS of urea eluate; BiP may stem from the column
[4] = target: Apolipoprotein A-I precursor (human) (UniProt P02647); assay: BiP-Sepharose pull-down, RA synovial fluid sample 3B, 1 M NaCl eluate, MS; may be indirect
[5] = target: Isoform A of Proteoglycan-4 precursor (human) (UniProt Q92954); assay: as above
[6] = target: Galectin-3-binding protein precursor (human) (UniProt Q08380); assay: as above
[7] = target: Histone H3.2 (human) (UniProt Q71DI3); assay: as above
[8] = target: Neutrophil defensin 1 precursor (human) (UniProt P59665); assay: as above
[9] = target: Isoform H17 of Myeloperoxidase precursor (human) (UniProt P05164); assay: as above
[10] = target: IGKV1-5 protein, immunoglobulin kappa variable 1-5 (human) (UniProt P01602); assay: as above
[11] = target: 25 kDa protein/immunoglobulin lambda chain/rheumatoid factor G9 light chain (lambda V3)/IGLC1 protein (human) (UniProt P0CG04); assay: as above
[12] = target: Haptoglobin precursor (human) (UniProt P00738); assay: as above
[13] = target: Ig kappa chain V-IV region Len, immunoglobulin kappa variable 4-1 (human) (UniProt P06312); assay: as above
[14] = target: Heat shock 70 kDa protein 1L (human) (UniProt P34931); assay: as above
[15] = target: Clusterin precursor (human) (UniProt P10909); assay: as above
[16] = target: FLJ00385 protein (Fragment), immunoglobulin heavy constant mu (human) (UniProt P01871); assay: as above
[17] = target: IGHM protein, immunoglobulin heavy chain mu (heavy chain disease protein) (human) (UniProt P01871); assay: as above
[18] = target: Vitronectin precursor (Serum-spreading factor/S-protein) (human) (UniProt P04004); assay: BiP-Sepharose pull-down, RA synovial fluid sample 6B, 1 M NaCl eluate, MS; may be indirect
[19] = target: Heat shock 70 kDa protein 1L (human) (UniProt P34931); assay: as above
[20] = target: Apolipoprotein A-I precursor (human) (UniProt P02647); assay: BiP-Sepharose pull-down, RA synovial fluid sample 1B, 1 M NaCl eluate, MS; may be indirect
[21] = target: Apolipoprotein A-IV precursor (human) (UniProt P06727); assay: as above
[22] = target: Isoform H17 of Myeloperoxidase precursor (human) (UniProt P05164); assay: as above
[23] = target: fibronectin 1 isoform 4 preproprotein (human) (UniProt P02751); assay: as above
[24] = target: Single-chain Fv (Fragment), Ig heavy chain V-III region TRO (human) (UniProt P01762); assay: as above
[25] = target: IGHM protein, coagulation factor VII (serum prothrombin conversion accelerator) (human) (UniProt P08709); assay: as above
[26] = target: IGHG4 protein, immunoglobulin heavy constant gamma 4 (human) [IgG part: P01861]; assay: as above
[27] = target: Heat shock 70 kDa protein 1L (human) (UniProt P34931); assay: as above
[28] = target: Histone H2B type 2-E (human) (UniProt Q16778); assay: as above
[29] = target: IGHM protein, immunoglobulin heavy chain mu (heavy chain disease protein) (human) (UniProt P01871); assay: as above

Hypothetical protein/Heat shock 70 kDa protein 5 (glucose-regulated protein, 78 kDa = GRP78 = BiP = HSPA5), as identified in eluates (human), sequence (P11021 19-654 limits assumed): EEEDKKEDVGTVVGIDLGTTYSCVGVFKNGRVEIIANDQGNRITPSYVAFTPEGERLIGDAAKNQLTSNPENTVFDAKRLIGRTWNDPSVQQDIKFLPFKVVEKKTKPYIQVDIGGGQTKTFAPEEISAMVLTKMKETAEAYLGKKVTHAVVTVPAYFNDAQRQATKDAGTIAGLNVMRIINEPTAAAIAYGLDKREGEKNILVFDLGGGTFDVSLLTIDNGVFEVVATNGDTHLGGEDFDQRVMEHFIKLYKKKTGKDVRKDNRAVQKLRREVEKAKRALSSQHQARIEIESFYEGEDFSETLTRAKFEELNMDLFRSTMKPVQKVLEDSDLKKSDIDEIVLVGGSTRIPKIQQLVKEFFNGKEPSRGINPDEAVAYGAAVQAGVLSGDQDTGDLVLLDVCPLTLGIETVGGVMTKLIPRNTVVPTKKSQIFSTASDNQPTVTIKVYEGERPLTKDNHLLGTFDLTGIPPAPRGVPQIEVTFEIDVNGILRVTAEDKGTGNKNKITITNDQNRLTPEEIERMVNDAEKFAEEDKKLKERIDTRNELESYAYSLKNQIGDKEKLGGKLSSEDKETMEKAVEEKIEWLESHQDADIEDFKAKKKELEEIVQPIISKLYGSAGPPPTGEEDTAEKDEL
recombinant human BiP with C-terminal linker, FLAG-tag and His-tag (BiP-FLAG-His), sequence (P11021 other isoform, or with tags, fused parts or gaps): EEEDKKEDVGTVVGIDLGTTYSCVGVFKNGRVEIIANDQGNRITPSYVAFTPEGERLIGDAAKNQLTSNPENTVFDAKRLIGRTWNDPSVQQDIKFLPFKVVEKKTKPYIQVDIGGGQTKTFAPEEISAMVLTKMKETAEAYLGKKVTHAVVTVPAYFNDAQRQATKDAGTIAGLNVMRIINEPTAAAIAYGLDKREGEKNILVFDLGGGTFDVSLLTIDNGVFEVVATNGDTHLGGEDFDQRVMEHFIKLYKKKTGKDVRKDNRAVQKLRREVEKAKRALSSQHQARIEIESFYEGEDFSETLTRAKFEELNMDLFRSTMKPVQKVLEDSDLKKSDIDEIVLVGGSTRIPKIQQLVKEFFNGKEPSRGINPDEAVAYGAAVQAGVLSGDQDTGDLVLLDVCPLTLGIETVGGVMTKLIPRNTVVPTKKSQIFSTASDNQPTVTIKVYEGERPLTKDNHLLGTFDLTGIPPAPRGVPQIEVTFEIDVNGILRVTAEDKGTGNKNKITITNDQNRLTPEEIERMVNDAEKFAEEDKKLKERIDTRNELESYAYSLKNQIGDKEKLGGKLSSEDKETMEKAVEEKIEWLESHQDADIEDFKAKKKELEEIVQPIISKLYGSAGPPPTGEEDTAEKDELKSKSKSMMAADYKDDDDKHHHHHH
Heat shock 70 kDa protein 1L (human), sequence (P34931 whole entry): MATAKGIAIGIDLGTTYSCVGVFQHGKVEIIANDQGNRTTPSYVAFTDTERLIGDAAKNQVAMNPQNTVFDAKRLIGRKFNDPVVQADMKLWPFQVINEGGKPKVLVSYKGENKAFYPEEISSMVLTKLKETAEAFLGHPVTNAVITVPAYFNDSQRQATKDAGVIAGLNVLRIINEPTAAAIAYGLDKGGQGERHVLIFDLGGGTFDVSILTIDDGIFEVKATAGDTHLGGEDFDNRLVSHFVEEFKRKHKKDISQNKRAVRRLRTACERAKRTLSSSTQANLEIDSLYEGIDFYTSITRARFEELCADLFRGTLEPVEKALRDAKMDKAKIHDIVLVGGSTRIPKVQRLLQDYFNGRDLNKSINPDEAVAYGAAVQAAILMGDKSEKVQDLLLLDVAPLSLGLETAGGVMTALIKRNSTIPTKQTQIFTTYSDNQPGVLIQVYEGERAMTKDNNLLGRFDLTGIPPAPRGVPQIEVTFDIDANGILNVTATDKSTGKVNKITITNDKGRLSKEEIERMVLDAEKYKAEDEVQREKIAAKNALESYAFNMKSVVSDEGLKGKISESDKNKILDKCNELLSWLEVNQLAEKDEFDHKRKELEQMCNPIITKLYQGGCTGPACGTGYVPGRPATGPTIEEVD
IGHM protein, immunoglobulin heavy chain mu (heavy chain disease protein) (human), sequence (P01871 other isoform, or with tags, fused parts or gaps limits assumed): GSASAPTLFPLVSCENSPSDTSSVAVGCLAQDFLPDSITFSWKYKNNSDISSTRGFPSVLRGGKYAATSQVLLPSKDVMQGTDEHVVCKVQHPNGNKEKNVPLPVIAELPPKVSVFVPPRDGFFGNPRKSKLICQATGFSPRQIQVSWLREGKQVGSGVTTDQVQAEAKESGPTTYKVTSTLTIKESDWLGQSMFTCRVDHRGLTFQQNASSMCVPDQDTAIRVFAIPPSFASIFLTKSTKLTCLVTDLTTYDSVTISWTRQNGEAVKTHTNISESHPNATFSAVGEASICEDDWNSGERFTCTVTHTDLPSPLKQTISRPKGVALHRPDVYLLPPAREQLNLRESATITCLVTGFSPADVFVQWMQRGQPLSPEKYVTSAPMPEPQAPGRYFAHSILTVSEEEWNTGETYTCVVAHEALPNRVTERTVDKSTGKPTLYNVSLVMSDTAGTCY
Apolipoprotein A-I precursor (human), sequence (P02647 25-267 limits assumed): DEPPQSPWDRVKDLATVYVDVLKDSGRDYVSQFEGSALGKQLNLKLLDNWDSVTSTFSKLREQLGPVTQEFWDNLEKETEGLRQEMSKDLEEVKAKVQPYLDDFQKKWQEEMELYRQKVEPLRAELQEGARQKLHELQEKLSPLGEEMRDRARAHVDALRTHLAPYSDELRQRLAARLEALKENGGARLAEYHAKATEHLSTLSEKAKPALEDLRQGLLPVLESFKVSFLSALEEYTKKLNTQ
Haptoglobin precursor (human), sequence (P00738 19-406 limits assumed): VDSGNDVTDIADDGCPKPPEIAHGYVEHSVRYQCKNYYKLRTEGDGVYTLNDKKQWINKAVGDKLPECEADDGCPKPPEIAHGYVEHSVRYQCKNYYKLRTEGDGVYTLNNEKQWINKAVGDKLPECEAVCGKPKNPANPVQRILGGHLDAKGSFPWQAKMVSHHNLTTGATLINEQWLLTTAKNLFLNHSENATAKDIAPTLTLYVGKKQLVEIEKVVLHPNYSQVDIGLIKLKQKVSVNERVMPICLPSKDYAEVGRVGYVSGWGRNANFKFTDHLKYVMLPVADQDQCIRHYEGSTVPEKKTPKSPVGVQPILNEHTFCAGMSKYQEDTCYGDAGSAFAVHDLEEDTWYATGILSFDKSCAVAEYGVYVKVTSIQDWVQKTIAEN
IGHG4 protein, immunoglobulin heavy constant gamma 4 (human) [IgG part: P01861], sequence (P01861 other isoform, or with tags, fused parts or gaps limits assumed): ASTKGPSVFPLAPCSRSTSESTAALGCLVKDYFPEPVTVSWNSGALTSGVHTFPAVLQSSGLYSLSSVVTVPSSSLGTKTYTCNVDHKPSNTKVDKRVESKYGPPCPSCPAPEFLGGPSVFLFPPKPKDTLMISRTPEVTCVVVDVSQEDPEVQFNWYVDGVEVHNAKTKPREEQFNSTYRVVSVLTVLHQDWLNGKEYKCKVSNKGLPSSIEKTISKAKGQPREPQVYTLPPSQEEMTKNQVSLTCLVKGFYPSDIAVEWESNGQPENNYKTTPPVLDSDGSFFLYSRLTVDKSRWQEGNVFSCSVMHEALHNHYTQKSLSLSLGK
IGKV1-5 protein, immunoglobulin kappa variable 1-5 (human), sequence (P01602 23-117 limits assumed): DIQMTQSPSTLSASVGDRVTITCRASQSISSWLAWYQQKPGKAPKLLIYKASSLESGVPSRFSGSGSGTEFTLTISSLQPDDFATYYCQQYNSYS
Single-chain Fv (Fragment), Ig heavy chain V-III region TRO (human), sequence (P01762 20-117 limits assumed): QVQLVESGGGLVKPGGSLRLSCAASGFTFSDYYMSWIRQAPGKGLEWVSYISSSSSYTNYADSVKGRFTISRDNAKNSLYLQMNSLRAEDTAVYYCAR
Apolipoprotein A-IV precursor (human), sequence (P06727 21-396 limits assumed): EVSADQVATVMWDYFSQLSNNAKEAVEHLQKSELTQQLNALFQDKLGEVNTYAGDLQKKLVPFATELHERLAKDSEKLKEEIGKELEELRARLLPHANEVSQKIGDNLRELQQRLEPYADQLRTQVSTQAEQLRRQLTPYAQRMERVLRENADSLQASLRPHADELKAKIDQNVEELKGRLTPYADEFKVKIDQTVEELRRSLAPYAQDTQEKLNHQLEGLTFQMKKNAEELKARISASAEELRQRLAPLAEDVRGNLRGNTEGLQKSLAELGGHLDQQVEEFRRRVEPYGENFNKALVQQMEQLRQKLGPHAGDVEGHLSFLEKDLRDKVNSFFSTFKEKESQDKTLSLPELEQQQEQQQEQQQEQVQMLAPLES
Galectin-3-binding protein precursor (human), sequence (Q08380 19-585 limits assumed): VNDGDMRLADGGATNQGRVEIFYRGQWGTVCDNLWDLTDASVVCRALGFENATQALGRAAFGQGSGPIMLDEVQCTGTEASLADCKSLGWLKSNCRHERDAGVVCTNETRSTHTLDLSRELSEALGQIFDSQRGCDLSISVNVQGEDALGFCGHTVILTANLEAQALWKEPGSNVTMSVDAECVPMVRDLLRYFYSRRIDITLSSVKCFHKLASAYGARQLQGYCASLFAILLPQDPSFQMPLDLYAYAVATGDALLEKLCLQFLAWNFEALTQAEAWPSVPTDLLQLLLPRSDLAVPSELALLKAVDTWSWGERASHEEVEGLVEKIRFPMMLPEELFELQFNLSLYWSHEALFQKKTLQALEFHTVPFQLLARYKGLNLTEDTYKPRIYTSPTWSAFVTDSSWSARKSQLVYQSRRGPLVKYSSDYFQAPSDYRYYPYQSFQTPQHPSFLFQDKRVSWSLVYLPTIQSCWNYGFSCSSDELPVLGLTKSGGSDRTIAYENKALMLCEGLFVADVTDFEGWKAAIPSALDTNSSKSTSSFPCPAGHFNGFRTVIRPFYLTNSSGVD
Neutrophil defensin 1 precursor (human), sequence (P59665 65-94 limits assumed): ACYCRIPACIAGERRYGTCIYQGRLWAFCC

recombinant human BiP with C-terminal linker, FLAG-tag and His-tag (BiP-FLAG-His) (from UniProt P11021 19-654)
# of unique peptides [1]: 10 peptides | # of unique peptides [2]: 10 peptides | # of peptides [3]: 31 peptides | # of unique peptides [4]: 8 peptides | # of unique peptides [5]: 2 peptides | # of unique peptides [6]: 1 peptides | # of unique peptides [7]: 1 peptides | # of unique peptides [8]: 1 peptides | # of unique peptides [9]: 1 peptides | # of unique peptides [10]: 5 peptides | # of unique peptides [11]: 1 peptides | # of unique peptides [12]: 3 peptides | # of unique peptides [13]: 1 peptides | # of unique peptides [14]: 1 peptides | # of unique peptides [15]: 1 peptides | # of unique peptides [16]: 2 peptides | # of unique peptides [17]: 1 peptides | # of unique peptides [18]: 1 peptides | # of unique peptides [19]: 1 peptides | # of unique peptides [20]: 3 peptides | # of unique peptides [21]: 3 peptides | # of unique peptides [22]: 1 peptides | # of unique peptides [23]: 10 peptides | # of unique peptides [24]: 2 peptides | # of unique peptides [25]: 2 peptides | # of unique peptides [26]: 4 peptides | # of unique peptides [27]: 1 peptides | # of unique peptides [28]: 2 peptides | # of unique peptides [29]: 3 peptides
